In US8734776B2 (ZymoGenetics, Inc., priority 2003, dated 2014):

Experiments:
zcyto21 = zcyto21 (Homo sapiens, UniProt Q8IU54); experiment: Inhibition of ligand-induced ISRE signaling by soluble receptors, zcyto21; format: cell-based; details: ligand Zcyto21 10 ng/ml; soluble receptor 10 micrograms/ml
Description: (§1) A signal transduction reporter assay can be used to show the inhibitor properties of zcytor19-Fc4 homodimeric and zcytor19-Fc/CRF2-4-Fc heterodimeric soluble receptors on zcyto20, zcyto21 and zcyto24 signaling Human embryonal kidney (HEK) cells overexpressing the zcytor19 receptor are transfected with a reporter plasmid containing an interferon-stimulated response element (ISRE) driving transcription of a luciferase reporter gene. Luciferase activity following stimulation of transfected cells with ligands (including zcyto20 (SEQ ID NO:2), zcyto21 (SEQ ID NO:4), zcyto24 (SEQ ID NO: 8)) reflects the interaction of the ligand with soluble receptor.
(§2) 293 HEK cells overexpressing zcytor19 were transfected as follows: 700,000 293 cells/well (6 well plates) were plated approximately 18 h prior to transfection in 2 milliliters DMEM+10% fetal bovine serum. Per well, 1 microgram pISRE-Luciferase DNA (Stratagene) and 1 microgram pIRES2-EGFP DNA (Clontech,) were added to 6 microliters Fugene 6 reagent (Roche Biochemicals) in a total of 100 microliters DMEM. This transfection mix was added 30 minutes later to the pre-plated 293 cells. Twenty-four hours later the transfected cells were removed from the plate using trypsin-EDTA and replated at approximately 25,000 cells/well in 96 well microliter plates. Approximately 18 h prior to ligand stimulation, media was changed to DMEM+0.5% FBS.
(§3) The signal transduction reporter assays were done as follows: Following an 18 h incubation at 37° C. in DMEM+0.5% FBS, transfected cells were stimulated with 10 ng/ml zcyto20, zcyto21 or zcyto24 and 10 micrograms/ml of the following soluble receptors; human zcytor19-Fc homodimer, human zcytor19-Fc/human CRF2-4-Fc heterodimer, human CRF2-4-Fc homodimer, murine zcytor19-Ig homodimer. Following a 4-hour incubation at 37° C., the cells were lysed, and the relative light units (RLU) were measured on a luminometer after addition of a luciferase substrate. The results obtained are shown as the percent inhibition of ligand-induced signaling in the presence of soluble receptor relative to the signaling in the presence of PBS alone.

zcyto24 = target: T1, zcyto24 (Mus musculus, UniProt Q4VK74); experiment: Inhibition of ligand-induced ISRE signaling by soluble receptors, zcyto24; format: cell-based; details: ligand Zcyto24 10 ng/ml; soluble receptor 10 micrograms/ml
T1 sequence (Q4VK74 20-193): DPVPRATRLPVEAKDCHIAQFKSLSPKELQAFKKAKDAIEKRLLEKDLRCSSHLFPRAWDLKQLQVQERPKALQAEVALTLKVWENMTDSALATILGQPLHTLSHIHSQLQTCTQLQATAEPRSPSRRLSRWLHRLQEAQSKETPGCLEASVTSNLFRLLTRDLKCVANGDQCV
Description: as §1, §2, §3

zcyto20 = target: T2, zcyto20 (Homo sapiens, UniProt Q8IZJ0); experiment: Inhibition of ligand-induced ISRE signaling by soluble receptors, zcyto20; format: cell-based; details: soluble receptor 10 micrograms/ml; for Percent Inhibition of Ligand-induced ISRE Signaling by Soluble Receptors: ligand Zcyto20 10 ng/ml; for effect on ligand-induced signaling: zcyto20, zcyto21 or zcyto24 10 ng/ml
T2 sequence (Q8IZJ0 26-200): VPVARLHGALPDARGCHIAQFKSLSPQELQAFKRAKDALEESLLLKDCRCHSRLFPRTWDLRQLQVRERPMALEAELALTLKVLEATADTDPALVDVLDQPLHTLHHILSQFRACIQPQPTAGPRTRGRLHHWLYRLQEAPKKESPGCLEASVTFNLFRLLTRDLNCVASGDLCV
Description: as §1, §2, §3

[1] = tested on: encephelomyocarditis virus; experiment: Antiviral assay: cytopathic effect in HeLa cells; format: cell-based, human
[2] = tested on: encephelomyocarditis virus; experiment: Antiviral assay: cytopathic effect in L929 cells; format: cell-based, mouse
[3] = relative CM concentration .008X
[4] = relative CM concentration .0156X
[5] = relative CM concentration .0325X
[6] = relative CM concentration .0625X
[7] = relative CM concentration .125X

Sequence of zcyto21 (Q8IU54 20-200): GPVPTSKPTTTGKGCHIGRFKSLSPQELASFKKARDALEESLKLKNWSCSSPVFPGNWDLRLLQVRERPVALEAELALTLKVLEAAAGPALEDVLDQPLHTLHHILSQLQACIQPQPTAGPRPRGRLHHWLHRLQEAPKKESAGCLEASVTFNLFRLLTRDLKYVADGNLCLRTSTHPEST

Row | Molecule | Percent Inhibition of Ligand-induced ISRE Signaling by Soluble Receptors (zcyto21) [%] | Percent Inhibition of Ligand-induced ISRE Signaling by Soluble Receptors (zcyto24) [%] | Percent Inhibition of Ligand-induced ISRE Signaling by Soluble Receptors (zcyto20) [%] | effect on ligand-induced signaling (zcyto20) | Percentage Cytopathic Effect [1, 3] [%] | Percentage Cytopathic Effect [1, 4] [%] | Percentage Cytopathic Effect [1, 5] [%] | Percentage Cytopathic Effect [1, 6] [%] | Percentage Cytopathic Effect [1, 7] [%] | Percentage Cytopathic Effect ([1]; relative CM concentration .25X) [%] | Percentage Cytopathic Effect ([1]; relative CM concentration .5X) [%] | Percentage Cytopathic Effect ([2]; relative CM conc. .008X) [%] | Percentage Cytopathic Effect ([2]; relative CM conc. .0156X) [%] | Percentage Cytopathic Effect ([2]; relative CM conc. .0325X) [%] | Percentage Cytopathic Effect ([2]; relative CM conc. .0625X) [%] | Percentage Cytopathic Effect ([2]; relative CM conc. .125X) [%] | Percentage Cytopathic Effect ([2]; relative CM conc. .25X) [%] | Percentage Cytopathic Effect ([2]; relative CM conc. .5X) [%]
1 | HuCRF2-4-Fc: human CRF2-4-Fc homodimer soluble receptor | 79 | 82 | 80 | No significant effects |  |  |  |  |  |  |  |  |  |  |  |  |  | 
2 | Huzcytor19-Fc/huCRF2-4-Fc: human zcytor19-Fc/human CRF2-4-Fc heterodimer soluble receptor | 16 | 47 | 16 |  |  |  |  |  |  |  |  |  |  |  |  |  |  | 
3 | IL-28B: human IL-28B, previously designated zcyto22, SEQ ID NO:6 (protein, listed as Homo sapiens, SIGNAL (1)...(25)) MKLDMTGDCMPVLVLMAAVLTVTGAVPVARLRGALPDARGCHIAQFKSLSPQELQAFKRAKDALEESLLLKDCKCRSRLFPRTWDLRQLQVRERPVALEAELALTLKVLEATADTDPALGDVLDQPLHTLHHILSQLRACIQPQPTAGPRTRGRLHHWLHRLQEAPKKESPGCLEASVTFNLFRLLTRDLNCVASGDLCV |  |  |  |  | 0 | 0 | 0 | 0 | 0 | 0 | 0 | 87 | 87 | 87 | 87 | 87 | 87 | 87
4 | zcyto25: mouse IL-28, SEQ ID NO:10 (protein, listed as Mus musculus, SIGNAL (1)...(28)) MKPETAGGHMLLLLLPLLLAAVLTRTQADPVPRATRLPVEAKDCHIAQFKSLSPKELQAFKKAKGAIEKRLLEKDMRCSSHLISRAWDLKQLQVQERPKALQAEVALTLKVWENINDSALTTILGQPLHTLSHIHSQLQTCTQLQATAEPKPPSRRLSRWLHRLQEAQSKETPGCLEDSVTSNLFQLLLRDLKCVASGDQCV |  |  |  |  | 10 | 5 | 5 | 0 | 0 | 0 | 0 | 87 | 87 | 87 | 87 | 87 | 87 | 87
5 | Muzcytor19-Ig: murine zcytor19-Ig homodimer soluble receptor (protein, left off: a dimerising Fc or GST, murine zcytor19-Ig homodimer soluble receptor) RPRLAPPRNVTLFSQNFTVYLTWLPGLGSPPNVTYFVTYQSYIKTGWRPVEHCAGIKALVCPLMCLKKLNLYSKFKGRVQAASAHGRSPRVESRYLEYLFDVELAPPTLVLTQMEKILRVNATYQLPPCMPSLELKYQVEFWKEGLGSKTLFPDTPYGQPVQIPLQQGASRRHCLSARTVYTLIDIKYSQFSEPSCIFLEAPGDKRA | 103 | 89 | 91 | No significant effects |  |  |  |  |  |  |  |  |  |  |  |  |  | 
6 | Huzcytor19-Fc: human zcytor19-Fc homodimer soluble receptor (protein, left off: a dimerising Fc or GST, human zcytor19-Fc homodimer soluble receptor) RPRLAPPQNVTLLSQNFSVYLTWLPGLGNPQDVTYFVAYQSSPTRRRWREVEECAGTKELLCSMMCLKKQDLYNKFKGRVRTVSPSSKSPWVESEYLDYLFEVEPAPPVLVLTQTEEILSANATYQLPPCMPPLDLKYEVAFWKEGAGNKTLFPVTPHGQPVQITLQPAASEHHCLSARTIYTFSVPKYSKFSKPTCFLLEVPEANWA | 45 | 90 | 92 |  |  |  |  |  |  |  |  |  |  |  |  |  |  | 
